tested on: Escherichia coli TOP10; experiment: shrunken log2 fold change of peptide-encoding DNA abundance (4.5 h post-induction vs induction); higher = less antimicrobial activity (less host growth inhibition); conditions: time post-induction: 4.5 h; library: site-saturation at positions 5, 18, 19, 20
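Note: peptides expressed intracellularly from a pBAD plasmid library in pooled LB shake-flask culture, induced with 0.3% L-arabinose, DNA abundance read by NGS, three biological replicates, DESeq2 with apeglm shrinkage.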

Row | Sequence | shrunken log2 fold change
1 | RRIRSRPPRLPRPRPRPTSDPRP | -0.00252
2 | RRIRNRPPRLPRPRPRPCFPPRP | -0.312
3 | RRIRRRPPRLPRPRPRPQQQPRP | -0.0864
4 | RRIRIRPPRLPRPRPRPCMNPRP | -0.307
5 | RRIRPRPPRLPRPRPRPYDIPRP | -0.88
6 | RRIRERPPRLPRPRPRPRLCPRP | -0.426
7 | RRIRMRPPRLPRPRPRPSGGPRP | 0.738
8 | RRIRVRPPRLPRPRPRPRHVPRP | 0.0785
9 | RRIRQRPPRLPRPRPRPKLTPRP | -0.0707
10 | RRIRERPPRLPRPRPRPCRWPRP | -0.205
11 | RRIRNRPPRLPRPRPRPQIDPRP | -0.0557
12 | RRIRQRPPRLPRPRPRPYLSPRP | 0.00493
13 | RRIRYRPPRLPRPRPRPKLNPRP | -0.689
14 | RRIRDRPPRLPRPRPRPEFHPRP | 0.858
15 | RRIRARPPRLPRPRPRPDKNPRP | -0.00427
16 | RRIRFRPPRLPRPRPRPHGKPRP | -0.0579
17 | RRIRMRPPRLPRPRPRPNYVPRP | -0.536
18 | RRIRTRPPRLPRPRPRPCADPRP | -0.0062
19 | RRIRWRPPRLPRPRPRPFCFPRP | 0.449
20 | RRIRGRPPRLPRPRPRPETNPRP | 1.95
21 | RRIRRRPPRLPRPRPRPMSFPRP | -0.0277
22 | RRIRTRPPRLPRPRPRPRKGPRP | 0.333
23 | RRIRVRPPRLPRPRPRPNTSPRP | -0.391
24 | RRIRIRPPRLPRPRPRPITYPRP | -0.323
25 | RRIRARPPRLPRPRPRPVVNPRP | 0.346

Row | Sequence | shrunken log2 fold change
26 | RRIRHRPPRLPRPRPRPLRKPRP | 0.0993
27 | RRIRCRPPRLPRPRPRPDFGPRP | -0.275
28 | RRIRHRPPRLPRPRPRPHEKPRP | -0.00373
29 | RRIRQRPPRLPRPRPRPISHPRP | -0.421
30 | RRIRWRPPRLPRPRPRPPRGPRP | 0.584
31 | RRIRDRPPRLPRPRPRPGCYPRP | 0.0592
32 | RRIRERPPRLPRPRPRPRNKPRP | -0.121
33 | RRIRCRPPRLPRPRPRPQQEPRP | -0.051
34 | RRIRMRPPRLPRPRPRPALGPRP | 0.625
35 | RRIRQRPPRLPRPRPRPSTWPRP | -0.116
36 | RRIRKRPPRLPRPRPRPIAKPRP | 0.141
37 | RRIRERPPRLPRPRPRPDRFPRP | -0.01
38 | RRIRERPPRLPRPRPRPISCPRP | -0.705
39 | RRIRIRPPRLPRPRPRPKPLPRP | -0.191
40 | RRIRERPPRLPRPRPRPRRWPRP | 0.267
41 | RRIRMRPPRLPRPRPRPSNFPRP | -0.192
42 | RRIRKRPPRLPRPRPRPCSEPRP | 0.296
43 | RRIRDRPPRLPRPRPRPPQNPRP | 0.409
44 | RRIRTRPPRLPRPRPRPANWPRP | 0.0703
45 | RRIRWRPPRLPRPRPRPQSLPRP | 0.00606
46 | RRIRSRPPRLPRPRPRPTPQPRP | 0.388
47 | RRIRLRPPRLPRPRPRPSFCPRP | -0.403
48 | RRIRMRPPRLPRPRPRPQFDPRP | -0.0694
49 | RRIRRRPPRLPRPRPRPVGSPRP | 0.432
50 | RRIRFRPPRLPRPRPRPNDAPRP | 0.186

Row | Sequence | shrunken log2 fold change
51 | RRIRFRPPRLPRPRPRPIVIPRP | -0.205
52 | RRIRFRPPRLPRPRPRPIPYPRP | -0.102
53 | RRIRWRPPRLPRPRPRPFLAPRP | -0.0712
54 | RRIRDRPPRLPRPRPRPQMNPRP | -0.315
55 | RRIRRRPPRLPRPRPRPTRNPRP | 0.853
56 | RRIRGRPPRLPRPRPRPVPMPRP | 1.17
57 | RRIRCRPPRLPRPRPRPAMNPRP | -0.0385
58 | RRIRYRPPRLPRPRPRPLETPRP | -0.0196
59 | RRIRFRPPRLPRPRPRPERMPRP | 0.124
60 | RRIRPRPPRLPRPRPRPNHQPRP | -0.251
61 | RRIRVRPPRLPRPRPRPEYYPRP | 0.0358
62 | RRIRMRPPRLPRPRPRPAFGPRP | 1.05
63 | RRIRCRPPRLPRPRPRPWIYPRP | -0.821
64 | RRIRCRPPRLPRPRPRPDKIPRP | -0.24
65 | RRIRPRPPRLPRPRPRPEWMPRP | 0.0362
66 | RRIRGRPPRLPRPRPRPILIPRP | 0.191
67 | RRIRNRPPRLPRPRPRPNFEPRP | -0.0924
68 | RRIRNRPPRLPRPRPRPLKYPRP | -0.0547
69 | RRIRGRPPRLPRPRPRPTYMPRP | 0.0228
70 | RRIRIRPPRLPRPRPRPTDIPRP | -0.359
71 | RRIRHRPPRLPRPRPRPQCGPRP | -0.333
72 | RRIRFRPPRLPRPRPRPNDYPRP | -0.355
73 | RRIRKRPPRLPRPRPRPQIYPRP | -0.159
74 | RRIRARPPRLPRPRPRPNKCPRP | -0.311
75 | RRIRNRPPRLPRPRPRPKLQPRP | 0.114

Row | Sequence | shrunken log2 fold change
76 | RRIRERPPRLPRPRPRPCMVPRP | -1.08
77 | RRIRRRPPRLPRPRPRPHDQPRP | 0.0964
78 | RRIRNRPPRLPRPRPRPQYIPRP | -0.0546
79 | RRIRWRPPRLPRPRPRPVCQPRP | -0.0154
80 | RRIRVRPPRLPRPRPRPSPHPRP | -0.571
81 | RRIRYRPPRLPRPRPRPDPVPRP | -0.0502
82 | RRIRLRPPRLPRPRPRPSRNPRP | -0.0105
83 | RRIRPRPPRLPRPRPRPEHQPRP | -0.0202
84 | RRIRGRPPRLPRPRPRPLHDPRP | 0.748
85 | RRIRPRPPRLPRPRPRPAHDPRP | 6.73e-05
86 | RRIRERPPRLPRPRPRPVHFPRP | 0.0364
87 | RRIRNRPPRLPRPRPRPHTTPRP | -0.235
88 | RRIRLRPPRLPRPRPRPLWNPRP | -0.228
89 | RRIRWRPPRLPRPRPRPRPTPRP | 0.547
90 | RRIRARPPRLPRPRPRPIVIPRP | -0.194
91 | RRIRIRPPRLPRPRPRPWHQPRP | -0.00186
92 | RRIRCRPPRLPRPRPRPPHRPRP | 0.854
93 | RRIRIRPPRLPRPRPRPHTHPRP | -0.92
94 | RRIRNRPPRLPRPRPRPSIMPRP | -0.611
95 | RRIRLRPPRLPRPRPRPITCPRP | -0.513
96 | RRIRGRPPRLPRPRPRPDPFPRP | 0.302
97 | RRIRHRPPRLPRPRPRPYCTPRP | -0.18
98 | RRIRNRPPRLPRPRPRPAGNPRP | 0.0404
99 | RRIRKRPPRLPRPRPRPRATPRP | 1.17
100 | RRIRMRPPRLPRPRPRPTCTPRP | 0.963

Row | Sequence | shrunken log2 fold change
101 | RRIRGRPPRLPRPRPRPEPTPRP | 1.52
102 | RRIRWRPPRLPRPRPRPRIHPRP | 0.178
103 | RRIRPRPPRLPRPRPRPSRSPRP | 0.0328
104 | RRIRRRPPRLPRPRPRPYSEPRP | -0.154
105 | RRIRYRPPRLPRPRPRPSQRPRP | -0.0178
106 | RRIRERPPRLPRPRPRPADYPRP | -0.379
107 | RRIRRRPPRLPRPRPRPDSSPRP | -0.118
108 | RRIRERPPRLPRPRPRPQSMPRP | -0.0801
109 | RRIRCRPPRLPRPRPRPKCNPRP | -0.201
110 | RRIRTRPPRLPRPRPRPQYEPRP | 0.00772
111 | RRIRDRPPRLPRPRPRPYVNPRP | -1.59
112 | RRIRQRPPRLPRPRPRPVLFPRP | 0.166
113 | RRIRIRPPRLPRPRPRPVWCPRP | 0.148
114 | RRIRTRPPRLPRPRPRPTDCPRP | 0.0577
115 | RRIRHRPPRLPRPRPRPQTFPRP | -0.105
116 | RRIRQRPPRLPRPRPRPKYLPRP | -0.0386
117 | RRIRYRPPRLPRPRPRPVEIPRP | -0.00968
118 | RRIRDRPPRLPRPRPRPRDMPRP | -0.0954
119 | RRIRNRPPRLPRPRPRPKENPRP | -0.409
120 | RRIRDRPPRLPRPRPRPNLIPRP | -0.15
121 | RRIRERPPRLPRPRPRPHYPPRP | -0.649
122 | RRIRFRPPRLPRPRPRPNQQPRP | -0.0474
123 | RRIRCRPPRLPRPRPRPSNSPRP | -0.644
124 | RRIRNRPPRLPRPRPRPHAKPRP | -0.0658
125 | RRIRCRPPRLPRPRPRPMNIPRP | -0.693

Row | Sequence | shrunken log2 fold change
126 | RRIRPRPPRLPRPRPRPFEMPRP | 0.0143
127 | RRIRQRPPRLPRPRPRPDTRPRP | 0.00157
128 | RRIRDRPPRLPRPRPRPTMTPRP | 0.334
129 | RRIRFRPPRLPRPRPRPLYVPRP | -0.631
130 | RRIRMRPPRLPRPRPRPGIYPRP | -0.075
131 | RRIRLRPPRLPRPRPRPSCRPRP | -0.116
132 | RRIRQRPPRLPRPRPRPGKHPRP | 0.0941
133 | RRIRERPPRLPRPRPRPVSVPRP | -0.022
134 | RRIRRRPPRLPRPRPRPQGRPRP | 0.544
135 | RRIRERPPRLPRPRPRPECCPRP | 0.066
136 | RRIRDRPPRLPRPRPRPDYIPRP | 0.0998
137 | RRIRDRPPRLPRPRPRPHQYPRP | 0.0144
138 | RRIRQRPPRLPRPRPRPDHRPRP | 0.083
139 | RRIRTRPPRLPRPRPRPVQTPRP | 0.216
140 | RRIRMRPPRLPRPRPRPAWLPRP | 0.818
141 | RRIRSRPPRLPRPRPRPKWYPRP | -0.336
142 | RRIRDRPPRLPRPRPRPANQPRP | 0.253
143 | RRIRNRPPRLPRPRPRPFSNPRP | -0.214
144 | RRIRERPPRLPRPRPRPGLMPRP | -0.0269
145 | RRIRWRPPRLPRPRPRPHWIPRP | -0.434
146 | RRIRHRPPRLPRPRPRPIWPPRP | 0.0213
147 | RRIRWRPPRLPRPRPRPGGCPRP | 0.732
148 | RRIRERPPRLPRPRPRPGKGPRP | 0.208
149 | RRIRHRPPRLPRPRPRPVHHPRP | -0.0583
150 | RRIRQRPPRLPRPRPRPNRRPRP | 0.103

Reference: the supplement of paper PMC9112550, “Optimization of the antimicrobial peptide Bac7 by deep mutational scanning” (BMC Biology, 2022)
